Measurements taken from patent US20240228562A1, “NOVEL LIPOCALIN MUTEINS SPECIFIC FOR CONNECTIVE TISSUE GROWTH FACTOR (CTGF)” (PIERIS PHARMACEUTICALS GMBH, priority 2021, published 2024).
Marks after values point to notes of the source that are not given here.

B1: SEQ ID NO: 74: fusion protein comprising two CTGF-binding lipocalin muteins (protein)
chain: QDSTSDLIPAPPLSKVPLQQNFQDNQFQGKWYVVGLAGNAILREDKQPAKMFATIYELKEDKSYDVTSVRFEAKSCKYTIKTFVPGSQPGEFTAGYIKSAPGQTSTLVRVVSTNYNQHAMVFFKHVTQNREIFVITLYGRTKELTSELKENFIRFSKSLGLPENHIVFPVPIDQCIDGGGGGSGGGGSGGGGSQDSTSDLIPAPPLSKVPLQQNFQDNQFQGKWYVVGWAGNVKLREDKQPQKMSATIYELKEDKSYDVTEVVFEQKKCHYIIKTFVPGSQPGEFTAGDIKSPPGYTSSLVRVVSTNYNQHAMVFFKKVSQNREFFWITLYGRTKELTSELKENFIRFSKSLGLPENHIVFPVPIDQCIDG
modifications: fusion protein
B2: SEQ ID NO: 23: optimized CTGF-binding hNGAL lipocalin mutein (protein)
chain: QDSTSDLIPAPPLSKVPLQQNFQDNQFQGKWYVVGVAGNAILRPDKQPAKMFATIYELKEDKSYDVTSVRFEAKSCKYTIKTFVPGSQPGEFTSGQIKSAPGQTSTLVRVVSTNYNQHAMVFFKHVSQNREIFVITLYGRTKELTSELKENFIRFSKSLGLPENHIVFPVPIDQCIDG
modifications: lipocalin mutein

Columns and labels:
[1] = Nebulization behavior, droplet size distribution by laser diffraction; assay type: physicochemical; conditions: vibrating mesh nebulizer, Malvern Spraytec
Description: The suitability of the CTGF-targeting lipocalin muteins and fusion proteins disclosed herein for administration via inhalation was tested using a commercially available vibrating mesh nebulizer (Philips InnoSpire Go®). Droplet size distribution was characterized by laser diffraction using the nebulizer in conjunction with Malvern Spraytec and inhalation cell.
Representative data for the exemplary CTGF-targeting lipocalin mutein of SEQ ID NO: 23 (A) and for the fusion protein of SEQ ID NO: 74 (B) are shown in FIG. 5 and below Table 10. […] Nebulization of the lipocalin muteins and fusion proteins had no negative impact on the stability and activity of the molecules (data not shown).

[2] = test system: CCL-206 lung fibroblasts co-cultured with primary murine Epcam-positive epithelial progenitor cells; experiment: Lung organoid formation model; assay type: cell-based; conditions: 14 days treatment; nintedanib 100 nM; SEQ ID NO: 74 at 100 nM
Description: The effect of CTGF-targeting lipocalin muteins was analyzed using an organoid model for lung regeneration. In this model, CCL-206 lung fibroblasts are co-cultured with freshly isolated primary murine Epcam-positive epithelial progenitor cells, and the number of formed organoids is analyzed after 14 days. TGF-b1 pre-treatment of CCL-206 fibroblasts leads to an impaired organoid formation and resembles an impairment of lung regeneration as for example observed in lung disease, such as IPF. The impaired formation of organoids can be rescued by treatment with different drugs, such as nintedanib, which is used as a positive control in this model. […] Analysis of organoid numbers confirmed the impairment of organoid formation by TGF-b1 stimulation.

[3] = target: T1, CTGF (Homo sapiens, UniProt P29279); experiment: ELISA-based competition assay with anti-CTGF antibody; assay type: binding; conditions: data not shown
T1 sequence (P29279 27-349): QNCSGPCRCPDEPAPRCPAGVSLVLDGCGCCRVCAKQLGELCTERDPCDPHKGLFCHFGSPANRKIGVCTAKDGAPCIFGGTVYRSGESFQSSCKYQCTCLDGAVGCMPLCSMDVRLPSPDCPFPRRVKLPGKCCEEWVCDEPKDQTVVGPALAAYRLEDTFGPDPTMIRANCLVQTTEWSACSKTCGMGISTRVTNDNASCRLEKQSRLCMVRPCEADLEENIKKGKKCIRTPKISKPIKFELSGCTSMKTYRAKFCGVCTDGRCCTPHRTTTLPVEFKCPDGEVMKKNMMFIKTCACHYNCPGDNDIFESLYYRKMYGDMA

[4] = Mouse lung PK; assay type: in vivo; conditions: mice
Description: The lipocalin mutein (100 μg/mouse) was oropharyngeally administered to mice, and exposure in different compartments was measured after 2, 4, 8 and 24 h by ELISA (FIG. 7A). 100 μg of the antibody were administered to mice via intravenous infusion, and exposure was measured after 1, 8, 24 and 96 h by ELISA (FIG. 7B).

[5] = mutein 100 μg oropharyngeal, antibody 100 μg intravenous, compartment of administration set to 100%

Molecule	% V < 1 μm [1]	% V < 5 μm [1]	% V < 10 μm [1]	Dv10 [1]	Dv50 [1]	Dv90 [1]	Dv10 ([1]; listed as 74)	Dv50 ([1]; listed as 74)	Effect on TGF-b1 impaired organoid formation [2]	Dv10 ([1]; listed as 23)	Dv50 ([1]; listed as 23)	Dv90 ([1]; listed as 23)	Competition with antibody of SEQ ID NOs: 60 and 61 for binding to CTGF [3]	Exposure in the lung ([4]; 100 μg/mouse oropharyngeal, 2-24 h, ELISA)	Lung exposure compared to plasma [4, 5]	Plasma exposure compared to lung [4, 5]	Plasma exposure compared to lung ([4]; mutein 100 μg oropharyngeal, antibody 100 μg intravenous, compartment of administration set to 100%, listed as 23)
B1	0.984%	54.81%	88.4%	1.8 μm	4.6 μm	10.5 μm	1.824 μm	4.589 μm	even stronger trend for improved organoid formation	–	–	–	–	–	–	–	–
B2	1.874%	68.97%	93.55%	1.4 μm	3.5 μm	8.6 μm	–	–	–	1.471 μm	3.484 μm	8.622 μm	competed with the antibody	significant exposure in the lung over 24 h	100* %	approx. 1%	0.9%
